According to the supplement of paper PMC7125110:
± gives the standard error. Fewer inactive variants are shown than the library holds.

B1: glmS ribozyme (parent)
chain: AUAAAAGCGCCAGAACUACAGAAAUGUAGUUGACGAGGAGGAGGUUUAUCGAAUUUUCGGCGGAUGCCUCCAAA

Tests used:
Conditions in all cases: with glucosamine-6-phosphate
glucosamine-6-phosphate [1] = variants of: B1; experiment: self-cleavage kobs at 40 uM GlcN6P; higher = faster cleavage; RNA array
How it was run: (§1)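 Barcoded glmS ribozyme variants on sequenced MiSeq chips were transcribed in situ by E. coli RNA polymerase and tracked through a hybridised Cy3 probe at 37 °C. Glucosamine-6-phosphate (40 μM to 10 mM) in HEPES/KCl/Mg(OAc)2 buffer was flowed in, and tiles were imaged over ~14 h. Signals were normalised to baseline and to non-cleaving reference variants; per-tile medians were fit to one- or two-exponential decays to give kobs. kcat and KM came from weighted Michaelis–Menten fits across concentrations.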

glucosamine-6-phosphate [2] = variants of: B1; experiment: self-cleavage kobs at 160 uM GlcN6P; higher = faster cleavage; RNA array
How it was run: as §1

glucosamine-6-phosphate [3] = variants of: B1; experiment: self-cleavage kobs at 640 uM GlcN6P; higher = faster cleavage; RNA array
How it was run: as §1

glucosamine-6-phosphate [4] = variants of: B1; experiment: self-cleavage kobs at 2500 uM GlcN6P; higher = faster cleavage; RNA array
How it was run: as §1

glucosamine-6-phosphate [5] = variants of: B1; experiment: self-cleavage kobs at 10000 uM GlcN6P; higher = faster cleavage; RNA array
How it was run: as §1

| Variant | self-cleavage kobs at 40 uM GlcN6P (glucosamine-6-phosphate [1]) [s⁻¹] | self-cleavage kobs at 160 uM GlcN6P (glucosamine-6-phosphate [2]) [s⁻¹] | self-cleavage kobs at 640 uM GlcN6P (glucosamine-6-phosphate [3]) [s⁻¹] | self-cleavage kobs at 2500 uM GlcN6P (glucosamine-6-phosphate [4]) [s⁻¹] | self-cleavage kobs at 10000 uM GlcN6P (glucosamine-6-phosphate [5]) [s⁻¹] |
| --- | --- | --- | --- | --- | --- |
| AUAAAAGCGCCUGAACUACAGAAAUGUAGUUGACGAGGAGGAGGUUUAUCGAAUUUUCGGCGGAUGCUUCCAAA [A12U C68U] | 0.000326 ± 3.4e-05 | 0.000964 ± 9.8e-05 | 0.00195 ± 0.00021 | 0.0112 ± 0.002 | 0.00957 ± 0.0013 |
| AUAAAAGCGCCUGAACUACAGAAAUGUAGUUGACGAGGAGGAGGUUUAUCGAAUUUUCGGCUGAUGCCUUCAAA [A12U G62U C70U] | < 1e-05 | – | – | – | < 1e-05 |
| AUAAAAGCGCCUGGACUACAGAAAUGUAGUUGACGAGGAGGAGGUUUAUCGAAUUUUCGGCGGAUGCCUCCAAA [A12U A14G] | 0.00336 ± 0.00044 | 0.00737 ± 0.0027 | 0.0265 ± 0.0078 | – | – |
| AUAAAAGCGCCUGAACUACAGAAAUGUAGUUGACGAGGAGGAGGUUUAUCGAAUUUUCGGCCGAUGCCUCCAAA [A12U G62C] | < 1e-05 | < 1e-05 | < 1e-05 | < 1e-05 | < 1e-05 |
| AUAAAAGCGCCUGAACUACAGAAAUGUAGUUGACGACGAGGAGGUUUAUCGACAUUUCGGCGGAUGCCUCCAAA [A12U G37C A53C U54A] | < 1e-05 | – | – | – | – |
| AUAAAAGCGCCUGAACUACAGAAAUGUAGCUGACGAGGAGGAGGUUUAUCGAAUUUUCGGCGGAUGCAUCCAAA [A12U U30C C68A] | < 1e-05 | – | – | – | – |
| AUAAAAGCGCCUGAACUACAGAAAUGUAGUUGACGAGGUGGAGGUUUAUCGAAUUUUCGGCGGAUGCCUCUAAA [A12U A39U C71U] | 0.000517 ± 0.00011 | – | – | – | 0.0493 ± 0.014 |
| AUAAAAGCGCCUGGACUACAGAAAUGUAGUUGACGAGGAGGAGGUUUAUCGGAUUUUCGGCGGAUGCCUCCAAA [A12U A14G A52G] | 0.000148 ± 3e-05 | – | – | 0.00387 ± 0.0018 | 0.00726 ± 0.0014 |
| AUAAAAGCGCCUGAACUACAGAAAUGUAGUUGACGUGGAGGAGGUUUAUAGAAUUUUCGGCGGAUGCCGCCAAA [A12U A36U C50A U69G] | 9.31e-05 ± 2.3e-05 | – | – | 0.000241 ± 5.7e-05 | 6.54e-05 ± 1.6e-05 |
| AUAAAAGCGCCUGAACUACAGAAAUGUAGUUGACGAGGAGGUGGUUUAUCGAAUUUUCCGCGGAUGCCUCCAAA [A12U A42U G59C] | < 1e-05 | – | – | – | – |
| AUAAAAGCGCCUGAACUACAGAAAUGUAGUUGACGAGGAGGAGGUUUAUCGAGUUUUCGGCGGAUGCCUCCAAA [A12U A53G] | 0.00255 ± 0.00025 | 0.00496 ± 0.00086 | 0.0163 ± 0.0025 | – | 0.125 ± 0.023 |
| AUAAAAGCGCCUGAACUACAGAAAUGUAGUUGACGAGGAGGAGGUUUAUCGGAUUUUCGGCGGAUGUCUCCAAA [A12U A52G C67U] | 7.05e-05 ± 1.6e-05 | – | – | – | 0.00179 ± 0.00037 |
| AUAAAAGCGCCUGAACUACAGAAAUGUAGUUGACGAGGAGGAGGUUUAUGGAAUUUUCUGCGGAUGCCCCCAAA [A12U C50G G59U U69C] | 0.000143 ± 4.1e-05 | – | – | 8.19e-05 ± 3e-05 | 0.000187 ± 4.7e-05 |
| AUAAAAGCGCCUGAACUACAGAAAUGUAGUUGACUAGGAGGAGGUUUACCGAAUUUUCGGCGGAUGCCUCCAAA [A12U G35U U49C] | < 1e-05 | – | – | < 1e-05 | – |
